From patent publication US20200033363A1 (GARVAN INSTITUTE OF MEDICAL RESEARCH, published 2020)
Residue numbers refer to the chain shown, from its start.

Columns and labels:
human VEGFA 121 [1] = biological target: T1, human VEGFA 121 (human, UniProt P15692-9 27-147, biotinylated (BLI assays)); test: bio-layer interferometry on immobilised VEGF (biotinylated VEGFA 121 by paragraph 199)
T1 construct: also called biotinylated VEGF
T1 sequence (looked up): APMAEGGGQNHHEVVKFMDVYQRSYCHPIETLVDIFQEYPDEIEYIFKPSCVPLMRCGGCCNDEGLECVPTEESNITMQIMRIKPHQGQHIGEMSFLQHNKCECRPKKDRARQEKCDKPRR

human VEGFB = biological target: T2, human VEGFB (human, UniProt P49765-2 22-188, limits assumed); test: biolayer interferometry
T2 sequence (looked up): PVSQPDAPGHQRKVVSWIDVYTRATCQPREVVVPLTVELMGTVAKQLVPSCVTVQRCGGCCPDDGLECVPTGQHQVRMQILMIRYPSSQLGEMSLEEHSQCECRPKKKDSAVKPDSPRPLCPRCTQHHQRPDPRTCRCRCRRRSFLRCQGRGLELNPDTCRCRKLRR

human PlGF = biological target: T3, human PlGF (human, UniProt P49763-2 19-149, limits assumed); test: biolayer interferometry
T3 sequence (looked up): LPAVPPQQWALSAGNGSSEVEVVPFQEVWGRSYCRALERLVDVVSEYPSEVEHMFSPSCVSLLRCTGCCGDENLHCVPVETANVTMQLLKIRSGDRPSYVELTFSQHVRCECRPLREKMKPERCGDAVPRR

mouse VEGFA164 = biological target: T4, mouse VEGFA164 (mouse, UniProt Q00731-2 27-190); test: biolayer interferometry
T4 sequence (looked up): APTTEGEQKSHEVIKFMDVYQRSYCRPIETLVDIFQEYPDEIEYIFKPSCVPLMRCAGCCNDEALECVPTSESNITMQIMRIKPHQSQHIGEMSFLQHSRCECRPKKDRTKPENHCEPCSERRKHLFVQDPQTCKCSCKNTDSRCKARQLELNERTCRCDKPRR

[2] = biological target: T5, hen egg-white lysozyme (HEL) (hen, UniProt P00698 19-147); test: biolayer interferometry (BLItz); HEL captured by biotinylated HyHEL-10 Fab on streptavidin sensors; Ig5 at 2000, 1000, 500 nM
T5 construct: Bought protein; It was biotinylated for phage selection; In BLI it was captured through biotinylated HyHEL-10 or HyHEL-5 Fab; also called hen egg white lysozyme antigen
T5 sequence (P00698 19-147): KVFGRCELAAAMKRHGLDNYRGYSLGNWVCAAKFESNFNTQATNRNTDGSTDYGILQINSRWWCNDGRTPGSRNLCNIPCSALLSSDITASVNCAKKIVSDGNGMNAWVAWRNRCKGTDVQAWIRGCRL

[3] = biological target: T5, hen egg-white lysozyme (HEL); test: biolayer interferometry (Example 5); printed as 'Affinity (nM)' in Table 4
[4] = biological target: T5, hen egg-white lysozyme (HEL); test: printed as 'Affinity (nM)' in Table 4; method not given; differs from the 30 nM of Example 5
[5] = biological target: T5, hen egg-white lysozyme (HEL); test: biolayer interferometry (BLItz); HEL captured by biotinylated HyHEL-5 Fab on streptavidin sensors; Ig12 at 1000, 750, 375 nM
human VEGFA 121 [6] = biological target: T1, human VEGFA 121; test: biolayer interferometry, generally the same method as for Ig5 and Ig12; immobilized biotinylated VEGF

B1: VLD9 fused to mouse IgG2c hinge-Fc region (VLD9-Fc, long native hinge) (Fc fusion)
chain: DIQMTQSPSSLSASVGDRVTITCRASRAIAAYLNWYQQKPGKAPKLLIYAYSDLQSGVPSRFSGSGSGTDFTLTISSLQPEDFATYYCQQVWANPYTFGQGTKVEIKRA
notes: domain: hinge and Fc region; Expressed in Expi293 cells; also called VLD9-Fc native hinge; VLD9-Fc fusion protein; not shown: Mouse IgG2c hinge and Fc region
Human VEGFA 121 [1]
  Kd: ~3 nM
Human VEGFB
  binding result: no binding
Human PlGF
  binding result: no binding
Mouse VEGFA164
  Kd: < 10 nM

B2: immunoglobulin homodimer Ig5 (other)
VL: DIQMTQSPSSLSASVGDRVTITCRASQDIAAALNWYQQKPGKAPKLLIYASSYLQSGVPSRFSGSGSGTDFTLTISSLQPEDFATYYCQQDGYYPATFGQGTKVEIKR
notes: also called VL5; Ig52
[2]
  koff: 0.0057 s⁻¹
  kon: 43000 M⁻¹ s⁻¹
[3]
  Kd: 130 nM

B3: immunoglobulin homodimer Ig12 (other)
VL: B2 VL with A31S, A32D, A50S, S51D, D91Y, G92Y, Y93M, Y94I, A96S
notes: Homodimer of two identical human Vkappa1 light chain variable domains, expressed in E. coli and purified on Protein L. Structure with HEL is PDB 4N1C; also called VL12; Ig122
[4]
  Kd: 64 nM
[5]
  Kd: 30 nM
  koff: 0.0025 s⁻¹
  kon: 84000 M⁻¹ s⁻¹

B4: VLD9 homodimer (other)
VL: B1 chain
notes: Homodimer of two identical human light chain variable domains selected on VEGF; Expressed generally as Ig5 and Ig12 were; also called VLD9 dimer; immunoglobulin VLD9
Human VEGFA 121 [6]
  Kd: < 10 nM
